From patent US20260258131A1 (ADAGENE PTE, published 2026)
Positions count from the first letter of the chain named. Numbers in names are those of the source. Where “and” joins values, the source holds several entries; their conditions need not be identical. Equal values may be shown once. One block for each binder: values may come before it.

Columns and labels:
[1] = molecular target: T1, Recombinant human CTLA4-hisFc (human, UniProt P16410 36-161, limits assumed); assay: ELISA, coated CTLA4-hisFc
T1 construct: Coated on the ELISA plate; the whole UniProt entry is named; also called recombinant human CLTA4-hisFc; its antigen; not shown: his tag and Fc
T1 sequence (looked up): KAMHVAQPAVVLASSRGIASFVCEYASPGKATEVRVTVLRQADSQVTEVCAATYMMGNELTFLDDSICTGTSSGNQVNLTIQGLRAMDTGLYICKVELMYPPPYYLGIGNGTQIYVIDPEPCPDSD
Description: (§1) Recombinant human CTLA4-hisFc was diluted to 1 μg/mL in PBS and coated on a Maxisorp plate at 4° C. overnight. Plates were blocked with PBS supplemented with 3% non-fat milk at 37° C. for 1 hour. After washing, 100 µL of 3-fold serial dilutions of antibodies were added to each well. After incubation at 37° C. for 1 hour, plates were washed four times, and 100 μL HRP conjugated anti-human IgG (Fab specific) (1:6000 dilution) was added to each well. Plates were incubated at 37° C. for 1 hour, washed four times, and then 50 μL TMB substrate solution was added to each well, and the plate was incubated at room temperature. Absorbance at 450 nm was measured after the reactions were stopped with 50 μL H2SO4 per well. The EC50 was evaluated by fitting the ELISA data using the sigmoidal (four-parameter logistic equation) model of GraphPad Prism 6 software. Experiments for some activatable antibodies were performed twice or more, leading to two or more calculated masking efficiencies being obtained for each of these activatable antibodies.

[2] = molecular target: T2, human CTLA4 expressed on cells (human, UniProt P16410 36-223); assay: cell-based or functional assay
T2 sequence (looked up): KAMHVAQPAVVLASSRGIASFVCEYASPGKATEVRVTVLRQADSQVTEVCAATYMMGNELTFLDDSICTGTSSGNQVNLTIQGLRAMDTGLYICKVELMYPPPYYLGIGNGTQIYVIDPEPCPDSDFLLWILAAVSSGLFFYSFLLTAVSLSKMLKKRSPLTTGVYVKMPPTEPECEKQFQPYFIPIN

[3] = molecular target: T3, biotinylated CTLA-4 protein (UniProt P16410 36-161, limits assumed, biotinylated (sites not given)); assay: competition ELISA, biotinylated CTLA-4 on coated CD80 (competitor CD80)
T3 construct: also called receptor CTLA-4
T3 sequence (looked up): T1 sequence (looked up)
Excerpt: (§2) Relative CTLA-4 and its ligand binding was monitored by reading the absorbance at 450 nm wavelength in the micro-plate reader.

[4] = molecular target: T3, biotinylated CTLA-4 protein; assay: competition ELISA, biotinylated CTLA-4 on coated CD86 (competitor CD86)
Excerpt: as §2

[5] = molecular target: T1, Recombinant human CTLA4-hisFc; assay: ELISA, coated CTLA4-hisFc, after MMP-9 cleavage
Description: as §1, with “Plates” for “Recombinant human CTLA4-hisFc was diluted to 1 μg/mL in PBS and coated on a Maxisorp plate at 4° C. overnight. Plates”
The purified activatable antibodies were treated with the proteases which recognize the cleavage sequences, and were then tested to determine whether removal of the masking peptide restored their activity. […] The reactions were carried out at 37° C. for 24 hours. […] The masking efficiency was then measured by ELISA as described above.

[6] = molecular target: recombinant mouse CTLA-4 protein (mouse, UniProt P09793 36-161, limits assumed); assay: SPR (Biacore), antibody captured by anti-human IgG Fc, CTLA-4 in flow
Description: (§3) Serial dilutions of recombinant CTLA-4 proteins of different species origins were sequentially loaded and flowed through the chip to measure the kinetics of CTLA-4 antigen association (kₐ), followed by a buffer flow-through phase for dissociation kinetics (kd) measurement. The binding affinity (KD) is then calculated with […].

[7] = molecular target: T4, recombinant rat CTLA-4 protein (rat, UniProt Q62859 36-161); assay: as above
T4 sequence: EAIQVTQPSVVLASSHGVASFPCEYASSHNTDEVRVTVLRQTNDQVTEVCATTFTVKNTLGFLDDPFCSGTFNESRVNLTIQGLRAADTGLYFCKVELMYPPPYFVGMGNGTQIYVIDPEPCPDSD
Description: as §3

EC50 [1]: 310 nM
B1: TY24461 (antibody, human IgG1, kappa)
heavy: not shown
light: EVGSYSSCKAPYPYCKGGGGPLGLAGGSDIQLTQSPSSLSASVGDRVTITCRASQSVRGRFLAWYQQKPGKAPKLLIYDASNRATGIPSRFSGSGSGTDFTLTISSLQPEDFATYYCQQSSSWPPTFGQGTKVEIKRTVAAPSVFIFPPSDEQLKSGTASVVCLLNNFYPREAKVQWKVDNALQSGNSQESVTEQDSKDSTYSLSSTLTLSKADYEKHKVYACEVTHQGLSSPVTKSFNRGEC

EC50 [1]: 150 nM
Masking efficiency (EC50 / EC50 of TY21580) [1]: 436 fold
B2: TY24148 (antibody, human IgG1, kappa)
heavy: not shown
light: EVGSYVLCAKFPFCITSGRSAGGGGTPLGLAGSGGSDIQLTQSPSSLSASVGDRVTITCRASQSVRGRFLAWYQQKPGKAPKLLIYDASNRATGIPSRFSGSGSGTDFTLTISSLQPEDFATYYCQQSSSWPPTFGQGTKVEIKRTVAAPSVFIFPPSDEQLKSGTASVVCLLNNFYPREAKVQWKVDNALQSGNSQESVTEQDSKDSTYSLSSTLTLSKADYEKHKVYACEVTHQGLSSPVTKSFNRGEC

EC50 [1]: 314 nM
B3: TY24462 (antibody, human IgG1, kappa)
heavy: not shown
light: ESSCKAPYPYCKGSGGGPLGLAGGSDIQLTQSPSSLSASVGDRVTITCRASQSVRGRFLAWYQQKPGKAPKLLIYDASNRATGIPSRFSGSGSGTDFTLTISSLQPEDFATYYCQQSSSWPPTFGQGTKVEIKRTVAAPSVFIFPPSDEQLKSGTASVVCLLNNFYPREAKVQWKVDNALQSGNSQESVTEQDSKDSTYSLSSTLTLSKADYEKHKVYACEVTHQGLSSPVTKSFNRGEC

EC50 [1]: 2140 nM
B5: TY24464 (antibody, human IgG1, kappa)
heavy: not shown
light: EVGSYTLCEPFATSVCRPSGGGPLGLAGGSDIQLTQSPSSLSASVGDRVTITCRASQSVRGRFLAWYQQKPGKAPKLLIYDASNRATGIPSRFSGSGSGTDFTLTISSLQPEDFATYYCQQSSSWPPTFGQGTKVEIKRTVAAPSVFIFPPSDEQLKSGTASVVCLLNNFYPREAKVQWKVDNALQSGNSQESVTEQDSKDSTYSLSSTLTLSKADYEKHKVYACEVTHQGLSSPVTKSFNRGEC

EC50 [1]: 25.8 nM
B8: TY24851 (antibody, IgG1, V domains shown)
VH: EVQLVESGGGLVQPGGSLRLSCAASGYSISSGYHWSWIRQAPGKGLEWLARIDWDDDKYYSTSLKSRLTISRDNSKNTLYLQLNSLRAEDTAVYYCARSYVYFDYWGQGTLVTVSS
VL: ETLCEPFATSVCRPGGGGSGGSGGGSDIQLTQSPSSLSASVGDRVTITCRASQSVRGRFLAWYQQKPGKAPKLLIYDASNRATGIPSRFSGSGSGTDFTLTISSLQPEDFATYYCQQSSSWPPTFGQGTKVEIKR
notes: also called non-cleavable antibody TY24851

EC50 [1]: 34.9 nM
B9: TY24841 (antibody, V domains shown)
VH: B8 VH
VL: B8 VL

EC50 [1]: 209 nM
B11: TY24459 (antibody, human IgG1, kappa)
heavy: not shown
light: EVGSYSSCKAPYPYCKGSGRGPLGLAGGSDIQLTQSPSSLSASVGDRVTITCRASQSVRGRFLAWYQQKPGKAPKLLIYDASNRATGIPSRFSGSGSGTDFTLTISSLQPEDFATYYCQQSSSWPPTFGQGTKVEIKRTVAAPSVFIFPPSDEQLKSGTASVVCLLNNFYPREAKVQWKVDNALQSGNSQESVTEQDSKDSTYSLSSTLTLSKADYEKHKVYACEVTHQGLSSPVTKSFNRGEC

EC50 [1]: 2.33 µM (2×) and 1.2 µM (2×)
B12: TY24465 (antibody, human IgG1, kappa)
heavy: not shown
light: EVGSYTLCEPFATSVCRPGGGPLGLAGGSDIQLTQSPSSLSASVGDRVTITCRASQSVRGRFLAWYQQKPGKAPKLLIYDASNRATGIPSRFSGSGSGTDFTLTISSLQPEDFATYYCQQSSSWPPTFGQGTKVEIKRTVAAPSVFIFPPSDEQLKSGTASVVCLLNNFYPREAKVQWKVDNALQSGNSQESVTEQDSKDSTYSLSSTLTLSKADYEKHKVYACEVTHQGLSSPVTKSFNRGEC

EC50 [1]: 3.17 µM (2×) and 2.23 µM (2×)
B13: TY24466 (antibody, human IgG1, kappa)
heavy: not shown
light: ETLCEPFATSVCRPSGGGPLGLAGGSDIQLTQSPSSLSASVGDRVTITCRASQSVRGRFLAWYQQKPGKAPKLLIYDASNRATGIPSRFSGSGSGTDFTLTISSLQPEDFATYYCQQSSSWPPTFGQGTKVEIKRTVAAPSVFIFPPSDEQLKSGTASVVCLLNNFYPREAKVQWKVDNALQSGNSQESVTEQDSKDSTYSLSSTLTLSKADYEKHKVYACEVTHQGLSSPVTKSFNRGEC

Second part, the binder before the results:

B4: TY24463 (antibody, human IgG1, kappa)
heavy: not shown
light: B5 light with G21R
EC50 [1]: 996 nM

B6: TY24149 (antibody, human IgG1, kappa)
heavy: not shown
light: EVGSYPPCVGFYPYCKTSGRSAGGGGTPLGLAGSGGSDIQLTQSPSSLSASVGDRVTITCRASQSVRGRFLAWYQQKPGKAPKLLIYDASNRATGIPSRFSGSGSGTDFTLTISSLQPEDFATYYCQQSSSWPPTFGQGTKVEIKRTVAAPSVFIFPPSDEQLKSGTASVVCLLNNFYPREAKVQWKVDNALQSGNSQESVTEQDSKDSTYSLSSTLTLSKADYEKHKVYACEVTHQGLSSPVTKSFNRGEC
EC50 [1]: 123 nM and 122 nM
Masking efficiency (EC50 / EC50 of TY21580) [1]: 356 fold

B7: TY24155 (antibody, human IgG1, kappa)
heavy: not shown
light: B6 light with P6S, P7S, V9K, G10A, F11P, T17G
EC50 [1]: 438 nM (2×) and 210 nM (2×)

B10: TY24460 (antibody, human IgG1, kappa)
heavy: not shown
light: B11 light with R20G
EC50 [1]: 339 nM

B14: TY24040 (antibody, human IgG1, kappa)
heavy: not shown
light: DIQLTQSPSSLSASVGDRVTITCRASQSVRGRFLAWYQQKPGKAPKLLIYDASNRATGIPSRFSGSGSGTDFTLTISSLQPEDFATYYCQQSSSWPPTFGQGTKVEIKRTVAAPSVFIFPPSDEQLKSGTASVVCLLNNFYPREAKVQWKVDNALQSGNSQESVTEQDSKDSTYSLSSTLTLSKADYEKHKVYACEVTHQGLSSPVTKSFNRGEC
ADCP reporter activity (luciferase), EC50 [2]: 2.04 nM

B15: TY24652-MMP9 (antibody, IgG1)
heavy: not shown
light: B14 light
notes: TY24652 after 24 h with MMP-9; IgG1 Fc with S239D/I332E
IC50 [3]: 280 nM
IC50 [4]: 17.5 nM
EC50 [5]: 0.313 nM
Kd [6]: 0.63 nM
Kd [7]: 0.69 nM

B16: TY24649-MMP9 (antibody, human IgG1)
heavy: not shown
light: B14 light
notes: TY24649 after 24 h with MMP-9; Wild-type human IgG1 Fc; also called TY24649 treated with recombinant human MMP-9
EC50 [5]: 0.286 nM
